Reference: US20200405833A1 (AFFIMED, published 2020)
Values belong to the binder of their own block, whether it stands above or below them.

Key:
[1] = molecular target: T1, EGFR-mFc; experiment: ELISA, coated EGFR-mFc antigen, scFv-IgAb titrated, bound construct detected with biotinylated CD16-Fc and streptavidin-HRP
T1 construct: Coated at 2.5 µg/mL in ELISA; also called monomeric EGFR-mFc; EGFR-mFc antigen
Procedure: (§1) 96-well ELISA plates (Immuno MaxiSorp; Nunc) were coated overnight at 4° C. with recombinant antigen or antibodies in 100 mM Carbonate-bicarbonate buffer. […] After a blocking step with 3% (w/v) skim milk powder (Merck) dissolved in PBS, serial dilutions of the different antibodies or soluble antigens in PBS containing 0.3% (w/v) skim milk powder were incubated on the plates for 1.5 h at room temperature. After washing three times with 300 μL per well of PBS containing 0.1% (v/v) Tween 20, plates were incubated with detection antibodies for 1 h at room temperature. For the detection of His-tagged analytes, Penta-HIS-HRP (Qiagen) was used at 1:3000 dilution. […] After washing three times with 300 μL per well of PBS containing 0.1% (v/v) Tween 20, plates were incubated with Tetramethylbenzidine (TMB) substrate (Seramun) until colour development was clearly visible. The reaction was stopped through the addition of 100 μL per well of 0.5 M H₂SO₄. The absorbance was measured at 450 nm using a multilabel plate reader (Victor, Perkin Elmer).

[2] = molecular target: T2, human EGFR on cells (human, UniProt P00533 25-1210); experiment: saturation binding assay on A-431 cells with radioiodinated scFv-IgAB_02; saturation binding assay on A-431 cells
T2 construct: whole, on cells; also called EGFR+ CHO cells

[3] = molecular target: T2, human EGFR on cells; experiment: cell-based or functional assay
[4] = molecular target: T2, human EGFR on cells; experiment: flow cytometry on EGFR-expressing A-431 cells, 37° C.
[5] = molecular target: T3, huCD16A^RV-His (human); experiment: ELISA, coated EGFR/CD16A scFv-IgAb, soluble huCD16A^RV-His titrated (the concentration axis is that of the antigen), Penta-HIS-HRP per paragraph 126
T3 construct: soluble, His-tagged; also called CD16-His antigen
Procedure: as §1

[6] = molecular target: T4, Cynomolgus FcRn (FCGRT/B2M) (cynomolgus, UniProt Q8SPV9 24-297; Q8SPW0 21-119, biotin-labelled (Avi-Tag)); experiment: SPR (Biacore T200), pH 6.0, biotinylated FcRn captured, multi cycle kinetics, 1:1 model
T4 construct: Purchased; also called FcRn (FCGRT/B2M), Avi-Tag, Biotin-Labeled, (Cynomolgus) Acro Cat #FCM-C82W5
Procedure: (§2) Binding of EGFR/CD16A antigen-binding proteins to FcRn (human, cynomolgus, murine) was measured on a Biacore T200 Instrument at 25° C. using PBS-T buffer pH 6.0 as running buffer and for dilution (1×Gibco PBS, 0.005% Tween20, titrated to pH 6.0 using 4 M HCl). For this purpose, a Multi Cycle Kinetic experiments was performed using Biotin CAPture Kit (GE Healthcare). For activation of the sensor surface, Biotin CAPture reagent (GE Healthcare) was injected to Flow Cells Fc 1-4 (100 sec, 5 μL/min) resulting in a response of 2100 RU-2800 RU. Biotinylated FcRn of different species were injected to Flow Cell Fc 2 (5 μL/min) resulting in a response of about 8-15 RU. A dilution series of EGFR/CD16A antigen-binding proteins was in (pH 7.4) as running buffer and for dilution. […] Chip was regenerated using Regeneration solution (GE Healthcare) (10 μL/min, Flow cells 1-4, 120 sec). Sensorgrams are referenced by subtraction of zero concentration cycle and subtraction of signals in reference channel Fc 1 (Fc 2-1, Fc 3-1, Fc 4-1). […] Chip was regenerated using Regeneration solution (GE Healthcare) (10 μL/min, Flow cells 1-4, 120 sec). […] Binding kinetics were evaluated by fitting data to 1:1 Binding Model (Rmax and RI locally fitted) using Biacore T200 Evaluation Software.

[7] = molecular target: T5, CD16A on primary human NK-cells (human, UniProt P08637 17-254); experiment: flow cytometry on primary human NK-cells, 37°C, without IgG; mean of 2 experiments
T5 construct: whole, on cells; also called FcγRIIIA
Procedure: (§3) After the last staining step, the cells were washed again and resuspended in 0.2 mL of FACS buffer containing 2 μg/mL propidium iodide (PI) (Sigma, cat.: P4170) in order to exclude dead cells. The fluorescence of 2-5×10³ living cells was measured using a Millipore Guava EasyCyte flow cytometer (Merck Millipore, Schwalbach, Germany). Mean fluorescence intensities of the cell samples were calculated using Incyte software (Merck Millipore, Schwalbach, Germany). After subtracting the fluorescence intensity values of the cells stained with the secondary and tertiary reagents alone, the values were used for non-linear regression analysis using the GraphPad Prism software (GraphPad Prism version 6.00 for Windows, GraphPad Software, La Jolla Calif. USA). For the calculation of KD, the equation for one-site-binding (hyperbola) was used.
(§4) To assess the impact of physiological concentrations of human IgG on the binding capacity of bispecific EGFR/CD16A antigen-binding proteins, binding assays with several bispecific EGFR/CD16A antigen-binding proteins on primary human NK-cells were performed in presence or absence of 10 mg/mL polyclonal human IgG as exemplarily shown in FIG. 10.

[8] = molecular target: T5, CD16A on primary human NK-cells; experiment: flow cytometry on primary human NK-cells, 37°C, with 10 mg/mL polyclonal human IgG (Gammanorm); mean of 2 experiments
Procedure: as §3, §4

[9] = molecular target: T6, Human FcRn (FCGRT/B2M) (human, UniProt P55899 24-297; P61769 21-119, biotin-labelled (site not stated)); experiment: SPR (Biacore T200), pH 6.0, biotinylated FcRn captured, multi cycle kinetics, 1:1 model
T6 construct: Purchased; also called FcRn (FCGRT/B2M), His-Tag, Biotin-Labeled, (Human) HiP Cat #71283

[10] = molecular target: T7, Mouse FcRn (FCGRT/B2M) (mouse, UniProt Q61559 22-297; P01887 21-119, biotin-labelled (Avi-Tag)); experiment: as above
T7 construct: Purchased; also called murine FcRn; murine FcRn receptor
T7 sequence (looked up): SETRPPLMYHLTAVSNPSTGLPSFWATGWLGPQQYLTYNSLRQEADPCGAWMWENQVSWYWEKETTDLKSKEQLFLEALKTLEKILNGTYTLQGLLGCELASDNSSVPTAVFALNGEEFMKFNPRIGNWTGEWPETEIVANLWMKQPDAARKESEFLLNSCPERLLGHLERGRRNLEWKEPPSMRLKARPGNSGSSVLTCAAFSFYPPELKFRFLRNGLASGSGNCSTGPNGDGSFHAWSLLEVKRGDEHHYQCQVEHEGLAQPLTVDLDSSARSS
T7 sequence (b2m, looked up): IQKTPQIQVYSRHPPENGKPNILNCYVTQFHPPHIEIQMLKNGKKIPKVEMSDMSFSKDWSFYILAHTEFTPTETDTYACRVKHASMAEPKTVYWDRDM
Procedure: as §2

[11] = molecular target: huCD16A (human, UniProt P08637 17-208, limits assumed); experiment: RIA assay on huCD16A with radioiodinated scFv-IgAB_02; RIA assay on huCD16A
[12] = molecular target: T2, human EGFR on cells; experiment: cell-based or functional assay; remark: listed apart in the source
[13] = molecular target: T2, human EGFR on cells; experiment: cell-based or functional assay; remark: listed apart in the source
[14] = molecular target: T6, Human FcRn (FCGRT/B2M); experiment: SPR (Biacore T200), pH 6.0, biotinylated FcRn captured, multi cycle kinetics
Procedure: as §2

[15] = molecular target: T7, Mouse FcRn (FCGRT/B2M); experiment: as above
Procedure: as §2

[16] = molecular target: T4, Cynomolgus FcRn (FCGRT/B2M); experiment: as above
Procedure: as §2

[17] = molecular target: T2, human EGFR on cells; experiment: flow cytometry on CHO cells expressing recombinant human EGFR, 37°C; apparent affinity
Procedure: (§5) After last staining step, the cells were washed again and resuspended in 0.2 mL of FACS buffer containing 2 μg/mL propidium iodide (PI) (Sigma, cat.: P4170) in order to exclude dead cells. The fluorescence of 2-5×10³ living cells was measured using a Beckman-Coulter FC500 MPL flow cytometer using the MXP software (Beckman-Coulter, Krefeld, Germany) or a Millipore Guava EasyCyte flow cytometer (Merck Millipore, Schwalbach, Germany). Mean fluorescence intensities of the cell samples were calculated using CXP software (Beckman-Coulter) or Incyte software (Merck Millipore, Schwalbach, Germany). After subtracting the fluorescence intensity values of the cells stained with the secondary and tertiary reagents alone, the values were used for non-linear regression analysis using the GraphPad Prism software (GraphPad Prism version 6.00 for Windows, GraphPad Software, La Jolla Calif. USA). For the calculation of KD, the equation for one-site-binding (hyperbola) was used.

[18] = molecular target: T8, EGFRvIII on CHO cells (human, UniProt P00533 25-1210); experiment: flow cytometry on CHO cells expressing recombinant EGFRvIII, 37°C; apparent affinity
T8 construct: whole, on cells; the exon 2-7 deletion must be applied; also called EGFRvIII+ CHO cells
Procedure: as §5

[19] = molecular target: T5, CD16A on primary human NK-cells; experiment: flow cytometry on primary human NK-cells, 37° C., with 10 mg/mL gammanorm (polyclonal human IgG)
Procedure: as §3, §4

[20] = molecular target: T9, EGFR-antigen (ELISA); experiment: ELISA, coated EGFR-Fc antigen, tandem diabody titrated (His-tagged analyte, Penta-HIS-HRP per paragraph 126)
T9 construct: also called EGFR-Fc
Procedure: as §1

[21] = molecular target: T2, human EGFR on cells; experiment: flow cytometry on HCT-116 cells, 37°C; mean of 2 experiments
Procedure: After the last staining step, the cells were washed again and resuspended in 0.2 mL of FACS buffer containing 2 μg/mL propidium iodide (PI) (Sigma, cat.: P4170) in order to exclude dead cells. The fluorescence of 2-5×10³ living cells was measured using a Millipore Guava EasyCyte flow cytometer (Merck Millipore, Schwalbach, Germany). Mean fluorescence intensities of the cell samples were calculated using the Incyte software (Merck Millipore, Schwalbach, Germany). After subtracting the fluorescence intensity values of the cells stained with the secondary and tertiary reagents alone, the values were used for non-linear regression analysis using the GraphPad Prism software (GraphPad Prism version 6.00 for Windows, GraphPad Software, La Jolla Calif. USA). For the calculation of KD, the equation for one-site-binding (hyperbola) was used.

[22] = molecular target: T2, human EGFR on cells; experiment: cell-based or functional assay; remark: listed apart in the source
[23] = molecular target: T10, CD16A-antigen (ELISA); experiment: ELISA, coated CD16A-Fc antigen, tandem diabody titrated (His-tagged analyte, Penta-HIS-HRP per paragraph 126)
T10 construct: also called CD16A-Fc
Procedure: as §1

T4 sequence (Q8SPV9 24-297 limits assumed, chain 1 of 2): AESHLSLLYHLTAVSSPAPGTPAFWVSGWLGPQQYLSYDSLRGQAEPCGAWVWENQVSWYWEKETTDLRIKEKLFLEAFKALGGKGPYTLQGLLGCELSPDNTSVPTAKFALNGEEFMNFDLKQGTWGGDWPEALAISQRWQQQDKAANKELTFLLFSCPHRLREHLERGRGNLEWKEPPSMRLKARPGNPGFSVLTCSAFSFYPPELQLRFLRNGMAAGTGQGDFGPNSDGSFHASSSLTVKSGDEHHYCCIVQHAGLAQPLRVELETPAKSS
T4 sequence (Q8SPW0 21-119 limits assumed, chain 2 of 2): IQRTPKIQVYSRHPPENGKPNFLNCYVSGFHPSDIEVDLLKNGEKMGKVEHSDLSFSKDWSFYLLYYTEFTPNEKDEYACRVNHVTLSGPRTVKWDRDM

- EC50 (read off the curve) [1]: ~0.02 µg/mL
- Kd [2]: 6.98 nM
- EC50 (read off the curve) [4]: ~2 nM
- EC50 (read off the curve) [5]: ~1 nM
- Kd [6]: 842 nM
- Kd [7]: 8 nM
- Kd [8]: 13.1 nM
- Kd [9]: 430 nM
- Kd [10]: 180 nM
- Kd [11]: 0.729 nM
- EC50 [µg/mL] on A-431 cells, inhibition of EGF-stimulated EGFR phosphorylation (phospho-EGFR ELISA) [13]: 1520 µg/mL
- EC50 [µg/mL] on A-549 cells, inhibition of EGF-stimulated EGFR phosphorylation (phospho-EGFR ELISA) [13]: 478 µg/mL
B1: scFv-IgAb_02 (bispecific antibody)
heavy: QVQLVQSGAEVKKPGESLKVSCKASGYTFTSYYMHWVRQAPGQGLEWMGIINPSGGSTSYAQKFQGRVTMTRDTSTSTVYMELSSLRSEDTAVYYCARGSAYYYDFADYWGQGTLVTVSSASTKGPSVFPLAPSSKSTSGGTAALGCLVKDYFPEPVTVSWNSGALTSGVHTFPAVLQSSGLYSLSSVVTVPSSSLGTQTYICNVNHKPSNTKVDKKVEPKSCDKTHTCPPCPAPEFEGGPSVFLFPPKPKDTLMISRTPEVTCVVVAVSHEDPEVKFNWYVDGVEVHNAKTKPREEQYNSTYRVVSVLTVLHQDWLNGKEYKCKVSNKALPAPIEKTISKAKGQPREPQVYTLPPSREEMTKNQVSLTCLVKGFYPSDIAVEWESNGQPENNYKTTPPVLDSDGSFFLYSKLTVDKSRWQQGNVFSCSVMHEALHNHYTQKSLSLSPGGGGGSGGGGSQVQLQESGPGLVKPSETLSLTCTVSGGSVSSGSYYWSWIRQPPGKGLEWIGYIYYSGSTNYNPSLKSRVTISVDTSKNQFSLKLSSVTAADTAVYYCARNPISIPAFDIWGQGTMVTVSSGGSGGSGGSGGSGGSGGSQPVLTQPPSVSVAPGKTARITCGGNNIGSKSVHWYQQKPGQAPVLVIYYDSDRPSGIPERFSGSNSGNTATLTISRVEAGDEADYYCQVWDTSSDHVLFGGGTKLTVL
light: SYVLTQPSSVSVAPGQTATISCGGHNIGSKNVHWYQQRPGQSPVLVIYQDNKRPSGIPERFSGSNSGNTATLTISGTQAMDEADYYCQVWDNYSVLFGGGTKLTVLGQPKAAPSVTLFPPSSEELQANKATLVCLISDFYPGAVTVAWKADSSPVKAGVETTTPSKQSNNKYAASSYLSLTPEQWKSHRSYSCQVTHEGSTVEKTVAPTECS
notes: Tetravalent, bispecific: anti-CD16A Fab arms, silenced human IgG1 Fc, anti-EGFR scFv fused C-terminally to CH3; also called EGFR/CD16A scFv-IgAb; scFv-IgAb_2
- EC50 [pM] mean, 4 h calcein-release cytotoxicity, HCT-116 target cells, human NK-cells E:T 5:1 [3]: 4.3 pM
- EC50 [pM] mean, 4 h calcein-release cytotoxicity, A-431 target cells, human NK-cells E:T 5:1 [12]: 2.1 pM

- binding result [14]: no binding (tested: up to 3000 nM)
- binding result [15]: no binding (tested: up to 3000 nM)
- binding result [16]: no binding (tested: up to 3000 nM)
- Kd [17]: 0.7 nM
- Kd [18]: 0.5 nM
- EC50 (read off the curve) [19]: ~10 nM
- EC50 (read off the curve) [20]: ~0.02 µg/mL
- EC50 (read off the curve) [4]: ~2 nM
- Kd [7]: 7.7 nM
- Kd [21]: 0.3 nM
- Kd [8]: 8.8 nM
- EC50, inhibition of EGF-induced EGFR phosphorylation (phospho-EGFR ELISA, A-431 cells), Exp.1 [22]: > 100 µg/mL
- EC50, inhibition of EGF-induced EGFR phosphorylation (phospho-EGFR ELISA, A-431 cells), Exp.2 [22]: > 100 µg/mL
- EC50 (read off the curve) [23]: ~0.03 µg/mL
B2: EGFR/CD16A tandem diabody (bispecific antibody)
chain: QVQLQESGPGLVKPSETLSLTCTVSGGSVSSGSYYWSWIRQPPGKGLEWIGYIYYSGSTNYNPSLKSRVTISVDTSKNQFSLKLSSVTAADTAVYYCARNPISIPAFDIWGQGTMVTVSSGGSGGSGGSSYVLTQPSSVSVAPGQTATISCGGHNIGSKNVHWYQQRPGQSPVLVIYQDNKRPSGIPERFSGSNSGNTATLTISGTQAMDEADYYCQVWDNYSVLFGGGTKLTVLGGSGGSQVQLVQSGAEVKKPGESLKVSCKASGYTFTSYYMHWVRQAPGQGLEWMGIINPSGGSTSYAQKFQGRVTMTRDTSTSTVYMELSSLRSEDTAVYYCARGSAYYYDFADYWGQGTLVTVSSGGSGGSGGSQPVLTQPPSVSVAPGKTARITCGGNNIGSKSVHWYQQKPGQAPVLVIYYDSDRPSGIPERFSGSNSGNTATLTISRVEAGDEADYYCQVWDTSSDHVLFGGGTKLTVLAAAGSHHHHHH
notes: no Fc; also called Tandem diaody
- EC50 [pM] mean, 4 h calcein-release cytotoxicity, HCT-116 target cells, human NK-cells E:T 5:1 [3]: 1.5 pM
- EC50 [pM] mean, 4 h calcein-release cytotoxicity, A-431 target cells, human NK-cells E:T 5:1 [12]: 1.1 pM
